{"source": "patent US10407712B2", "about": "“Methods, compositions and kits for high throughput kinase activity screening using mass spectrometry and stable isotopes” (President and Fellows of Harvard College, priority 2008, dated 2019)", "key": {"activated, purified Akt": {"target": "T1, activated, purified Akt (Homo sapiens, UniProt P31749)", "T1 construct": "Purified human active kinases of Akt1 (full length); purchased Cell Signaling Technology (Danvers, Mass.)", "T1 sequence (P31749 whole entry)": "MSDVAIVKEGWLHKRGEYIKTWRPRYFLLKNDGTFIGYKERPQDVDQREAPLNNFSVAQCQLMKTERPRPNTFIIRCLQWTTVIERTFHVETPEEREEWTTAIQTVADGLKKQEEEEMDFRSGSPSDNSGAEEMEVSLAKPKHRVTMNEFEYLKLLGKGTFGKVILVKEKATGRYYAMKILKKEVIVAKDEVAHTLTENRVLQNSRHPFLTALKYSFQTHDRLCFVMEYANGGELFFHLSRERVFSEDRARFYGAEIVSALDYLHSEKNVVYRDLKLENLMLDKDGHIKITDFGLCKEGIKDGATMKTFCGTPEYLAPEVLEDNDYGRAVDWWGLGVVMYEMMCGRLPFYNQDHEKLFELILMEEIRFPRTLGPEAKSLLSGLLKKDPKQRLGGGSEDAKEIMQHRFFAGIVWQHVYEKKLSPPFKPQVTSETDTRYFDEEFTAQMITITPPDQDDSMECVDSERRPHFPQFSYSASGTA", "experiment": "In vitro peptide phosphorylation by purified Akt", "assay_type": "biochemical", "settings": "100 μM peptide, individually reacted", "description": "(§1) Reaction mixture was supplemented with 0.1% BSA. Other conditions were the same as in FIG. 10A.\n(§2) Purified human active kinases of Akt1 (full length), extracellular signal-regulated kinase 1 (ERK1, 1-379), mitogen-activated protein kinase kinase 1 (MEK1, 1-393), 90 kDa ribosomal S6 kinases 1 (RSK1, 1-735), cAMP-dependent protein kinase (PKA) catalytic subunit-α (PKA Cα, 1-351), protein kinase Cα (PKCα, full length), epidermal growth factor (EGF) receptor (EGFR, 672-1210), platelet-derived growth factor (PDGF) receptor α (PDGFRα, 550-1090), vascular endothelial growth factor (VEGF) receptor 1 (VEGFR1 784-1338), Src (full length), casein kinase 2 (CK2, full length), Aurora A (1-403), AMP-activated protein kinase α1β1γ1 (AMPK α1β1γ1, full length), glycogen synthase kinase-3α (GSK-3α, 1-483) and MAP/microtubule affinity-regulating kinase 1 (MARK 1, full length) were obtained from Cell Signaling Technology (Danvers, Mass.). Cdc2/cyclin B1 (full length) and insulin-like growth factor (IGF)-I receptor (IGFIR, 959-1367) were obtained from Upstate (Temecula, Calif.).\nPeptides were synthesized, purified and quantified as described in Yu et al. 2009 Proc Natl Acad Sci USA 106: 11606-11611, hereby incorporated by reference herein in its entirety. […] Alternatively, reactions were performed using 6 μg cell lysate aliquotes mixed to a final volume of 20 μl. […]"}, "recombinant RSK1": {"target": "T2, recombinant RSK1 (Homo sapiens, UniProt Q15418)", "T2 construct": "90 kDa ribosomal S6 kinases 1 (RSK1, 1-735); purchased Cell Signaling Technology (Danvers, Mass.)", "T2 sequence (Q15418 whole entry)": "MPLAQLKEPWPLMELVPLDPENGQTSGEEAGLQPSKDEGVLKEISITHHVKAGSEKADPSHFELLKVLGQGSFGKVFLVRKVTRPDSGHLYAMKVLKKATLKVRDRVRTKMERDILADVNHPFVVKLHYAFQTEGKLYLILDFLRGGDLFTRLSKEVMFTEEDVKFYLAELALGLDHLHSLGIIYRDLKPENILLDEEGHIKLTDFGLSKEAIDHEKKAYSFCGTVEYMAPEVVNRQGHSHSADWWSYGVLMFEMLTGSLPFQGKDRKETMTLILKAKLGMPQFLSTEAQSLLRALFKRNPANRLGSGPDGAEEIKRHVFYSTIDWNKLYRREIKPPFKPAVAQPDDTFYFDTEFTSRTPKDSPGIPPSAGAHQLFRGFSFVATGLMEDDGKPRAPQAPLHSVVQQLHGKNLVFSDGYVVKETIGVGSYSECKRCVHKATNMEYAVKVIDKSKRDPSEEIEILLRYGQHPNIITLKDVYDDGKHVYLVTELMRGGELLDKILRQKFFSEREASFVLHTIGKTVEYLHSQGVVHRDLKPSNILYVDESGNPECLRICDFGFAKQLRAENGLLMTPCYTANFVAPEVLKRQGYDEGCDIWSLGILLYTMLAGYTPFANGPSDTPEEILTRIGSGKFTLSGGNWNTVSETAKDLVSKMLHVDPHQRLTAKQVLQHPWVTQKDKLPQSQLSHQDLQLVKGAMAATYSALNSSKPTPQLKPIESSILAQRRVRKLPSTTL", "experiment": "In vitro peptide phosphorylation by purified RSK", "assay_type": "biochemical", "settings": "100 μM peptide, individually reacted", "description": "as §1, §2\nPeptides were synthesized, purified and quantified as described in Yu et al. 2009 Proc Natl Acad Sci USA 106: 11606-11611, hereby incorporated by reference herein in its entirety. […] Alternatively, reactions were performed using 6 μg cell lysate aliquotes mixed to a final volume of 20 μl. Cell lysate or other kinase source was added to the substrate mixture in 25 mM Tris-Cl, pH 7.5, containing 5 mM ATP, 7.5 mM MgCl2, 0.2 mM EGTA, 7.5 mM β-glycerophosphate, 0.1 mM Na3VO4, and 0.1 mM DTT. The reaction was incubated at 25° C. for 60 min and then terminated by the addition of 100 μl of 1% trifluoroacetic acid (TFA) containing a known amount of an internal standard (typically 20 pmol). Alternatively, the reaction was incubated at 20° C. for 45 min before termination with TFA.\nIt was observed that basal phosphorylation of these peptides was not affected by knockdown and likely was the result of remaining RSK isoforms or other basophilic kinases (FIG. 5C)."}, "HEK293 cell lysates": {"test_system": "HEK293 cell lysates", "experiment": "Single-reaction 90-substrate KAYAK assay, HEK293 lysates with or without insulin", "assay_type": "biochemical, human", "settings": "5 μM each peptide, HEK293 lysate", "protocol": "For stimulation of HEK293 cells or HeLa lines, cells were treated with insulin (100 nM; 10-30 min) EGF (50 ng/ml; 10 min) or phorbol 12-myristate 13-acetate (PMA; 50 or 100 ng/ml; 10 -30 min) at 37° C. for the indicated times after overnight serum-starvation.\nAlternatively, cells were washed with PBS once and lysed with ice-cold lysis buffer, 10 mM potassium phosphate, pH 7.0, containing 0.5% NP-40, 0.1% Brij 35, 0.1% deoxycholic acid, 1 mM ethylenediaminetetraacetic acid (EDTA), 5 mM ethylene glycol tetraacetic acid (EGTA), 10 mM MgCl2, 50 mM β-glycerophosphate, 1 mM Na3VO4, 2 mM dithiothreitol (DTT) and protease inhibitor cocktail (Complete, Roche Applied Science, Indianapolis, Ind.). Homogenates were centrifuged at 10,000 rpm for 15 min at 4° C., and the supernatant was used as lysate. Protein concentration was quantified by a modified Bradford assay (Pierce).\nPeptides were synthesized, purified and quantified as described in Yu et al. 2009 Proc Natl Acad Sci USA 106: 11606-11611, hereby incorporated by reference herein in its entirety. Each substrate peptide (250 pmol) was mixed to a final concentration of 5 μM in the 50 μL reaction mixture. Alternatively, reactions were performed using 6 μg cell lysate aliquotes mixed to a final volume of 20 μl. Cell lysate or other kinase source was added to the substrate mixture in 25 mM Tris-Cl, pH 7.5, containing 5 mM ATP, 7.5 mM MgCl2, 0.2 mM EGTA, 7.5 mM β-glycerophosphate, 0.1 mM Na3VO4, and 0.1 mM DTT. The reaction was incubated at 25° C. for 60 min and then terminated by the addition of 100 μl of 1% trifluoroacetic acid (TFA) containing a known amount of an internal standard (typically 20 pmol). Alternatively, the reaction was incubated at 20° C. for 45 min before termination with TFA.\nInternal standard heavy peptides (5 pmol each) were added as a mixture to the terminated reactions followed by desalting with a solid phase extraction cartridge (SepPak tC18 (50 mg), Waters, Milford, Mass.). Phosphopeptides were enriched as described (Villen et al. 2008 Nat Protoc 3: 1630-1638). […]\nFor KAYAK analyses, phosphopeptides were dissolved in 5% FA and injected onto a 125-μm-internal diameter fused silica column packed with Magic C18 AQ material (Michrom Bioresources, Auburn, Calif.). Peptides were separated using a two-solvent system: solvent A (0.125% FA and 3% ACN in H2O), solvent B (0.125% FA in ACN) over 32 min gradient, and eluting peptides were directly analyzed using an LTQ-Orbitrap mass spectrometer (Thermo Scientific, San Jose, Calif.) equipped with the electron transfer dissociation option. […]"}}}
{"sequence": "RIRTQSFSLQPFR (The sequence was designed and synthesized) [F6]", "values": [{"measurement": "phosphorylation by Akt", "setting": "activated, purified Akt", "value": "strong phosphorylation"}, {"measurement": "phosphorylation by RSK", "setting": "recombinant RSK1", "value": "strong phosphorylation"}, {"measurement": "phosphorylation in response to insulin stimulation", "setting": "HEK293 cell lysates", "value": "increased phosphorylation"}]}
